The numbers were not newly measured in PMC3432731, which cites them from elsewhere.

Broadly, the Kd is the free concentration of one partner at which half of the binding sites on the other are occupied at equilibrium, for simple one-to-one binding.

This data set deals with Cyclin A (Homo sapiens) (UniProt P20248).
UniProt P20248, sequence (P20248 whole entry): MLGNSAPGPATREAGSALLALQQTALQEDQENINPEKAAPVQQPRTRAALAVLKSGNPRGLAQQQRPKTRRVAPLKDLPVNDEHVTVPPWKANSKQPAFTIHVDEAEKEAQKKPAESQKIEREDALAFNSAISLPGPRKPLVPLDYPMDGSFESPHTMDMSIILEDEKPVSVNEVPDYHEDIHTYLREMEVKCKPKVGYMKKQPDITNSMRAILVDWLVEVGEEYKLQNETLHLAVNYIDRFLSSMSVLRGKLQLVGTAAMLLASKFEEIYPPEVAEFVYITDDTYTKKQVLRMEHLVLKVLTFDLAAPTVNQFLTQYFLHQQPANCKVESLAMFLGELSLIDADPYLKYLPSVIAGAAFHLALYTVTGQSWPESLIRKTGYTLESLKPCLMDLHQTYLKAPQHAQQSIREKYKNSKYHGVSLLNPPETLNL

p27 (from UniProt P46527): the Kd was 25 nM.
